Residue numbers refer to the chain shown, from its start. “And” between values parts separate entries of the source, which are not always exact repeats. Equal entries are not always repeated. Values belong to the molecule of their own block, whether it stands above or below them.
Legend:
NrdR [1] = target: T1, NrdR (Streptomyces coelicolor, UniProt O69980); experiment: isothermal titration calorimetry, one set of sites; format: binding
T1 construct: full-length wild type, C-terminal His tag (pET30a(+)::nrdR), E. coli BL21(DE3); apo dimer 44 kDa, dodecamer with ATP, octamer/tetramer with dATP + ATP

[2] = target: NrdRΔNΔC, truncated S. coelicolor NrdR lacking both N- and C-terminal domains (Streptomyces coelicolor) (UniProt O69980); experiment: SEC; analytical SEC, Superdex 200 PC 3.2/30, 7 °C; 50 mM Tris-HCl pH 8.5, 50 mM KCl, 10 mM MgCl2, 0.5 mM TCEP, nucleotides in sample and buffer; 64 µM NrdR samples
NrdR [3] = target: T1, NrdR; experiment: isothermal titration calorimetry, one set of sites; format: binding; settings: 10 mM MgCl2, 50 mM Tris-HCl pH 8, 300 mM NaCl, 10% glycerol, 1 mM TCEP; 20 and 10 °C (which one not told)
NrdR R17A = target: T2, NrdR R17A (Streptomyces coelicolor M145, UniProt O69980 1-182, R17A); experiment: MST; 1 mM dATP + 1 mM ATP; MST: 25 mM Tris-HCl pH 7.6, 150 mM NaCl, 10 mM MgCl2, 5% glycerol, 1 mM DTT, 0.05% Tween-20, nucleotides 1 mM each, 10 nM Cy5-dsDNA, room temperature; settings: protein: recombinant; tags: C-terminal His6 (pET30a); label: 5'-Cy5 on sense strand; blunt
T2 sequence: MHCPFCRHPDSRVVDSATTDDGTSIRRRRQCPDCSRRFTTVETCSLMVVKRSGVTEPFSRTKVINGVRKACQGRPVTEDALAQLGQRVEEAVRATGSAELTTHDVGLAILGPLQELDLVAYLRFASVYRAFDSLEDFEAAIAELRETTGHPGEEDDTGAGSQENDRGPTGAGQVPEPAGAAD

NrdR D15A/R17A = target: T3, NrdR D15A/R17A (Streptomyces coelicolor M145, UniProt O69980 1-182, D15A;R17A); experiment: as above; settings: protein: recombinant; tags: C-terminal His6 (pET30a); label: 5'-Cy5 on sense strand; blunt
T3 sequence: T2 sequence with D15A

NrdR D15A = target: T4, NrdR D15A (Streptomyces coelicolor M145, UniProt O69980 1-182, D15A); experiment: as above; settings: protein: recombinant; tags: C-terminal His6 (pET30a); label: 5'-Cy5 on sense strand; blunt
T4 sequence: T2 sequence with D15A, A17R

NrdR [4] = target: T5, NrdR (Streptomyces coelicolor M145, UniProt O69980 1-182); experiment: MST; 1 mM dATP + 1 mM ADP, 10 mM Mg2+; MST: 25 mM Tris-HCl pH 7.6, 150 mM NaCl, 10 mM MgCl2, 5% glycerol, 1 mM DTT, 0.05% Tween-20, nucleotides 1 mM each, 10 nM Cy5-dsDNA, room temperature; settings: protein: recombinant; tags: C-terminal His6 (pET30a); chain copies: 4; label: 5'-Cy5 on sense strand; blunt
T5 sequence: T2 sequence with A17R

NrdR [5] = target: T5, NrdR; experiment: MST; 1 mM dATP + 1 mM ATP, 10 mM Mg2+; MST: 25 mM Tris-HCl pH 7.6, 150 mM NaCl, 10 mM MgCl2, 5% glycerol, 1 mM DTT, 0.05% Tween-20, nucleotides 1 mM each, 10 nM Cy5-dsDNA, room temperature; settings: protein: recombinant; tags: C-terminal His6 (pET30a); chain copies: 4; label: 5'-Cy5 on sense strand; blunt
NrdR [6] = target: T5, NrdR; experiment: MST; 1 mM dATP + 1 mM ATP; MST: 25 mM Tris-HCl pH 7.6, 150 mM NaCl, 10 mM MgCl2, 5% glycerol, 1 mM DTT, 0.05% Tween-20, nucleotides 1 mM each, 10 nM Cy5-dsDNA, room temperature; settings: protein: recombinant; tags: C-terminal His6 (pET30a); chain copies: 4; label: 5'-Cy5 on sense strand; blunt
[7] = target: the molecule itself; experiment: GEMMA (gas-phase electrophoretic mobility molecular analysis); with 50 µM dAMP and equimolar Mg acetate; 0.08 mg/ml; 100 mM ammonium acetate pH 7.3, 0.005% Tween-20
[8] = target: the molecule itself; experiment: cryo-EM structure; ATP-loaded NrdR; 1 mM ATP and 10 mM MgCl2 added to apo-protein, SEC in 50 mM Tris-HCl pH 8.0, 150 mM NaCl, 10 mM MgCl2, 1 mM TCEP, 0.5 mM ATP; 0.4 mg/ml (19 µM monomer) on grids
[9] = target: the molecule itself; experiment: GEMMA (gas-phase electrophoretic mobility molecular analysis); with dATP + ATP (50 µM nucleotide) and equimolar Mg acetate; 0.08 and 0.16 mg/ml; 100 mM ammonium acetate pH 7.3, 0.005% Tween-20
NrdR [10] = target: T5, NrdR; experiment: MST; MST: 25 mM Tris-HCl pH 7.6, 150 mM NaCl, 10 mM MgCl2, 5% glycerol, 1 mM DTT, 0.05% Tween-20, nucleotides 1 mM each, 10 nM Cy5-dsDNA, room temperature; settings: protein: recombinant; tags: C-terminal His6 (pET30a); chain copies: 4; label: 5'-Cy5 on sense strand; blunt

T1 sequence (O69980 whole entry): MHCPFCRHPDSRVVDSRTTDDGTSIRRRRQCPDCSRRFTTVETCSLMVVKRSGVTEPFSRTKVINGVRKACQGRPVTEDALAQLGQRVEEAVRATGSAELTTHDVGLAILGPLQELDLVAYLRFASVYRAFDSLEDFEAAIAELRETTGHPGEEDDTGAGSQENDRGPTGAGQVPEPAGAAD

Kd (NrdR [1]): 4000 nM
Molecule: Nc1ncnc2c1ncn2[C@@H]1O[C@H](COP(=O)(O)OP(=O)(O)OP(=O)(O)O)[C@@H](O)[C@H]1O [ATP]

Kd (NrdR [1]): 600 nM
Molecule: Nc1ncnc2c1ncn2[C@@H]1O[C@H](COP(=O)(O)OP(=O)(O)O)[C@@H](O)[C@H]1O [ADP]

stoichiometry N [2]: 2
Molecule: NrdRΔNΔC, truncated S. coelicolor NrdR lacking both N- and C-terminal domains (from UniProt O69980 1-182) (domain or fragment)

Molecule: Nc1ncnc2c1ncn2[C@@H]1O[C@H](COP(=O)(O)O)[C@@H](O)[C@H]1O [AMP]
KD (NrdR [3]): AMP, dAMP, and di-cyclic AMP were comparable to ATP in binding strengths

Kd (NrdR [1]): 1000 nM
Molecule: Nc1ncnc2c1ncn2[C@H]1C[C@H](O)[C@@H](COP(=O)(O)OP(=O)(O)OP(=O)(O)O)O1 [dATP]

Molecule: Nc1ncnc2c1ncn2[C@H]1C[C@H](O)[C@@H](COP(=O)(O)O)O1 [dAMP]
KD (NrdR [3]): AMP, dAMP, and di-cyclic AMP were comparable to ATP in binding strengths

Molecule: Nc1ncnc2c1ncn2[C@@H]1O[C@@H]2COP(=O)(O)O[C@H]3[C@@H](O)[C@H](n4cnc5c(N)ncnc54)O[C@@H]3COP(=O)(O)O[C@H]2[C@H]1O [cyclic di-AMP]
KD (NrdR [3]): AMP, dAMP, and di-cyclic AMP were comparable to ATP in binding strengths

Kd (NrdR [1]): 400 nM
Molecule: Nc1ncnc2c1ncn2[C@H]1C[C@H](O)[C@@H](COP(=O)(O)OP(=O)(O)O)O1 [dADP]

B1: nrdRJ promoter 57 bp (dsDNA)
DNA 1: GCCAATCCCCACATCTAGTGGTTGGATAGCGTGAGCAGCCCACAAGTTGTGGTCCCC
DNA 2: GGGGACCACAACTTGTGGGCTGCTCACGCTATCCAACCACTAGATGTGGGGATTGGC
binding result (NrdR R17A): no binding | binding result (NrdR D15A/R17A): no binding | binding result (NrdR D15A): binds | Kd (NrdR [4]): 68 ± 16 nM | Kd (NrdR [5]): 51 ± 11 nM

B2: nrdRJ C18/C49 (dsDNA)
DNA 1: B1 DNA 1 with G18C, G49C
DNA 2: B1 DNA 2 with C9G, C40G
binding result (NrdR R17A): no binding | fold decrease in affinity vs wild-type DNA (NrdR [6]): ~60 fold lower affinity than wild-type DNA

B3: nrdRJ G9/C18 (dsDNA)
DNA 1: B1 DNA 1 with C9G, G18C
DNA 2: B1 DNA 2 with C40G, G49C
binding result (NrdR R17A): no binding | fold decrease in affinity vs wild-type DNA (NrdR [6]): ~50 fold lower affinity than wild-type DNA

B4: nrdRJ T9/T18/T40/T49 (dsDNA)
DNA 1: B1 DNA 1 with C9T, G18T, C40T, G49T
DNA 2: B1 DNA 2 with C9A, G18A, C40A, G49A
binding result (NrdR R17A): no binding

B5: nrdAB promoter 57 bp (dsDNA)
DNA 1: CCGGGACACAACATCTGGGGGTGCTCGCGTCCCCCGGCACAAGATGTATGCTCATGC
DNA 2: GCATGAGCATACATCTTGTGCCGGGGGACGCGAGCACCCCCAGATGTTGTGTCCCGG
Kd (NrdR [4]): 159 ± 22 nM | Kd (NrdR [5]): 142 ± 31 nM

B6: Streptomyces coelicolor NrdR (wild type) (natural protein)
chain: T2 sequence with A17R
notes: RNR-specific transcriptional repressor NrdR of Streptomyces coelicolor strain M145; the nrdR gene cloned into pET30a(+), wild type; N-terminal Zn-ribbon domain followed by an ATP-cone domain and a C-terminal part; the wild-type nrdR gene was amplified, so probably the whole protein; Holds about 0.78 mol Zn per mol protein; also called apo-NrdR; ATP-loaded NrdR
stoichiometry N [7]: 2 | stoichiometry N [8]: 12 | stoichiometry N [9]: 8 and 4

B7: cydA promoter 57 bp (dsDNA)
DNA 1: GTAGGTCATAATTGCTTGTGAATGTGAACGCGTTCACAAGCGTGTCCCGATTGCGCC
DNA 2: GGCGCAATCGGGACACGCTTGTGAACGCGTTCACATTCACAAGCAATTATGACCTAC
binding result (NrdR [10]): no binding | binding result (NrdR R17A): no binding | Kd (NrdR D15A): 2600 ± 300 nM

Source: article PMC9110341, “A nucleotide-sensing oligomerization mechanism that controls NrdR-dependent transcription of ribonucleotide reductases” (Nature Communications, 2022)
